Source: paper PMC13078889
pIC50, pKd: −log10 of the molar value.

Tests used:
[1] = system: LARP6; experiment: TR-FRET competition; details: vs DIG-labeled A1 RNA; not in the material
[2] = system: LARP6; experiment: ITC; details: not in the material

A1 RNA (COL1A1 5'SL, 48 nt) showed a pIC50 [1] of 8.16.
Work on COL1A1-5'SL (A1), ITC yielded a pKd ([2]; only stated as higher Kd than COL1A1-TIS, value in Table 2 not in material) of under 6.40.
COL1A1-TIS was tested, and the pKd [2] was 6.40 and the pIC50 [1] was 8.57.
